Laboratory results as given in patent US12692310B2, “ASIC1 channel antagonist antibody” (ShanghaiTech University, priority 2019, dated 2026).

How the values were obtained:
Experiment in all cases: Subtype selectivity, FACS binding, transfected CHO-K1 cells
Type in all cases: cell-based
[1] = biological target: T1, hASIC1b (Homo sapiens, UniProt P78348)
T1 construct: expressed in transfected cells; host or cells: CHO-K1, transient
T1 sequence (P78348 1-562 isoform P78348-3): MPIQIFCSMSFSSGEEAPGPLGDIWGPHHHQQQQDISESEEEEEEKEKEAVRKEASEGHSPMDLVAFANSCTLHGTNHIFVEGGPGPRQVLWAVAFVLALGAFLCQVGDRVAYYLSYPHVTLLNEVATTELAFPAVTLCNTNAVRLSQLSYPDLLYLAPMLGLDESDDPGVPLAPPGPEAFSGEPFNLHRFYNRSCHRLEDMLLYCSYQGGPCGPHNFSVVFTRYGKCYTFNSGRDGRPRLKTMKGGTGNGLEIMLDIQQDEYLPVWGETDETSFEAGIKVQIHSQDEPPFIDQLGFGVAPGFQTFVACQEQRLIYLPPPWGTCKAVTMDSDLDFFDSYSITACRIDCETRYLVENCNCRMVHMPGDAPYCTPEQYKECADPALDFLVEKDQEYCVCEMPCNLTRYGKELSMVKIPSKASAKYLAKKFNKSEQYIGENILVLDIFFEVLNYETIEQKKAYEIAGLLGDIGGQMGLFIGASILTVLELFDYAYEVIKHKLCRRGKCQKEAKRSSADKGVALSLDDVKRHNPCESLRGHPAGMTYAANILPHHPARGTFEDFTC
Method: (§1) To test the species and subtype selectivity of ASC06-IgG1, vectors encoding human ASIC1b-eYFP fusion, rat ASIC1a-eYFP fusion, mouse ASIC1a-eYFP fusion, hASIC2a-eYFP fusion, hASIC2b-eYFP fusion, and hASIC3a-eYFP fusion were constructed. The CHO-K1 cells were transiently transfected with these plasmids. FACS binding assay and immunocytochemistry (ICC) were carried out to determine if ASC06-IgG1 is able to bind to the cell surface-expressed ASIC homologs and isotypes.

[2] = biological target: T2, hASIC2a (Homo sapiens, UniProt Q16515)
T2 construct: expressed in transfected cells; host or cells: CHO-K1, transient
T2 sequence (Q16515 1-512): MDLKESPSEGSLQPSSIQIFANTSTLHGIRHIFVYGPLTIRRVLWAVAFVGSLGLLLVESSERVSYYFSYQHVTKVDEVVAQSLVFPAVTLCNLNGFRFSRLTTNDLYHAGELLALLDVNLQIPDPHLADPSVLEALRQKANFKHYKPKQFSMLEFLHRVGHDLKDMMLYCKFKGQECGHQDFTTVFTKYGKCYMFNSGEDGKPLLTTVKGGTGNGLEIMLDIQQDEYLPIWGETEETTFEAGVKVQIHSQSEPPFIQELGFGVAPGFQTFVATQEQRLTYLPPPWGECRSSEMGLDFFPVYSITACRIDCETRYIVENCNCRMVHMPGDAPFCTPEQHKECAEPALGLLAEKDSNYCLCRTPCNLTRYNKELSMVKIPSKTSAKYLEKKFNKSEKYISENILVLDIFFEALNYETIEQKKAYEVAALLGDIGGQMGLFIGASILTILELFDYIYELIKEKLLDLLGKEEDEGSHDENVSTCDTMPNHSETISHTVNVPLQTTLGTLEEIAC
Method: as §1

[3] = biological target: T3, hASIC2a/2b (Homo sapiens, UniProt Q16515)
T3 construct: expressed in transfected cells; host or cells: CHO-K1, transient
T3 sequence (Q16515 1-512): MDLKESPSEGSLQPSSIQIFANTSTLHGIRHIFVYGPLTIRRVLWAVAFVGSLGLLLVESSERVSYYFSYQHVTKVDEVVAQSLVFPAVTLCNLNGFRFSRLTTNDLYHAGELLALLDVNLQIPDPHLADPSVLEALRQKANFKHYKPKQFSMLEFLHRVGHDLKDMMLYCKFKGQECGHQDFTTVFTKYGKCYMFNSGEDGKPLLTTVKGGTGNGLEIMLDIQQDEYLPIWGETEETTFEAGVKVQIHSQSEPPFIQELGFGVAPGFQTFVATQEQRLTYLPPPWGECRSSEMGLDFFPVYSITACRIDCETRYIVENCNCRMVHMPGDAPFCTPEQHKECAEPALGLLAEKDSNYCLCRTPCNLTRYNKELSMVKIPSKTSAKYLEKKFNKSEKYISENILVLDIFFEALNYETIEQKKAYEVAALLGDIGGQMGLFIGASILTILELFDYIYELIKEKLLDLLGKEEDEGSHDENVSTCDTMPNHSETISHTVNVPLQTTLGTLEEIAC
T3 sequence (Q16515 1-563 isoform Q16515-2): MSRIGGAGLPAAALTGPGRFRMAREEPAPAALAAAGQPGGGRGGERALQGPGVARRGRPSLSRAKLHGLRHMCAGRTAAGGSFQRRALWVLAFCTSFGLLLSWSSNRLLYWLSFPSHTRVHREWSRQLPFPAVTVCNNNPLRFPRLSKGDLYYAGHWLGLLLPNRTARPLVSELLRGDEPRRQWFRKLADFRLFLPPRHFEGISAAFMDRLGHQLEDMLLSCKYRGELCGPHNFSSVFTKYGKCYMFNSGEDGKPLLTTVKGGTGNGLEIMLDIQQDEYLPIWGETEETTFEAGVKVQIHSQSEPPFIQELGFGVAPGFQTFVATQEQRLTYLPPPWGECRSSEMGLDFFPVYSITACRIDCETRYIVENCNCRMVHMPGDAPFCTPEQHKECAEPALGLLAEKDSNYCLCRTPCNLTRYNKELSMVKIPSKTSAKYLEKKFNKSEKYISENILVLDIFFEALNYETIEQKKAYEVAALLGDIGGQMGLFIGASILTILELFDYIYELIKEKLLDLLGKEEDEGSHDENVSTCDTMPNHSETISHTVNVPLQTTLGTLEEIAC
Method: as §1

[4] = biological target: T4, hASIC3a (Homo sapiens, UniProt Q9UHC3)
T4 construct: expressed in transfected cells; host or cells: CHO-K1, transient
T4 sequence (Q9UHC3 1-531): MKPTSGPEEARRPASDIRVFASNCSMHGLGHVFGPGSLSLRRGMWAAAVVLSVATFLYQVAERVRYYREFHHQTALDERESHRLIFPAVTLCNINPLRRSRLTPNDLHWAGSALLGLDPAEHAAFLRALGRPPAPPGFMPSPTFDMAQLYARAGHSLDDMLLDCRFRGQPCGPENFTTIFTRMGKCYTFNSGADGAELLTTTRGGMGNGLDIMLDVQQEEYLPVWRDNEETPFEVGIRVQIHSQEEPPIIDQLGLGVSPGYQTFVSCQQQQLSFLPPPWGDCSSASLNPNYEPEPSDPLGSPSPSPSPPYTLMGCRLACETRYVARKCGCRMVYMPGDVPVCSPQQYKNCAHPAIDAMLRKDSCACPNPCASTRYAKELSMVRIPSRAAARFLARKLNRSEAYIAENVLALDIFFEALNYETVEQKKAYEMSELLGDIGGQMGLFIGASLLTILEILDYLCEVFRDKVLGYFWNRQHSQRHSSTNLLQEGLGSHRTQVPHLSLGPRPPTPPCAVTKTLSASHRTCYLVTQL
Method: as §1

B1: ASC06-IgG1: ASC06 antibody converted into a full length IgG1 form (antibody, V domains shown)
VH: QVQLQQSGGGLVQPGGSLRLSCAASGFTFSSYAMSWVRQAPGKGLEWVSAISGSGGSTYYADSVKGRFTISRDNSKNTLYLQMNSLRAEDTAVYYCAKDSFYGYSKGDWGQGTLVTVSS
VL: QSALTQPASVSGSPGQSITISCTGTSSDVGAYNYVSWYQQQPGKAPKLMIYGVSNRPSGVSNRFSGSKSGNAASLTISGLQAEDEADYYCSSYTSSSTYVFGTGTKLTVLG
not: FACS recognition of hASIC1b [1] | FACS recognition of hASIC2a [2] | FACS recognition of hASIC2a/2b [3] | FACS recognition of hASIC3a [4]
